Data as given in patent US20110159037A1.

Tests used:
[1] = target: HIV-1 envelope gp41 (virus of the PBMC neutralization assay) (HIV-1, isolate not stated)
[2] = target: Centromere B (Homo sapiens (Human)) (UniProt P07199); assay: Luminex AtheNA Multi-Lyte ANA Test, 0.15 µg mab per test
Histones = assay: as above
Ro (SSA) = assay: as above

Substance | HIV Neutralization ID50 In PBMC assay [1] | relative units (relative units based on a standard curve) [2] | also measured
13H11 (antibody) | > 50 µg/mL | – | –
98-6 (antibody) | 3.5 µg/mL | – | –
A32 (antibody) | – | 1130 | –
IgG1b12 (antibody) | – | 479 | relative units (relative units based on a standard curve) (Histones): 185
Mab 2F5 (antibody) | 1 µg/mL | 1780 | relative units (relative units based on a standard curve) (Histones): 1010; relative units (relative units based on a standard curve) (Ro (SSA)): 290
Mab 4E10 (antibody) | – | – | relative units (relative units based on a standard curve) (Ro (SSA)): 221
soluble HIV-1 Env gp140 oligomers (CON-S) | – | – | IC50 (Mab 4E10): 145 nM
